Source: paper doi:10.1101/2022.11.10.516034 (bioRxiv, 2022)
Like-named read-outs stand apart in the source and are kept apart here.

B1: full-length (FL) human Twinkle (aa 43-684) (enzyme, UniProt Q96RR1 43-684, looked up)
chain: ETLQALDMPVLPVTATEIRQYLRGHGIPFQDGHSCLRALSPFAESSQLKGQTGVTTSFSLFIDKTTGHFLCMTSLAEGSWEDFQASVEGRGDGAREGFLLSKAPEFEDSEEVRRIWNRAIPLWELPDQEEVQLADTMFGLTKVTDDTLKRFSVRYLRPARSLVFPWFSPGGSGLRGLKLLEAKCQGDGVSYEETTIPRPSAYHNLFGLPLISRRDAEVVLTSRELDSLALNQSTGLPTLTLPRGTTCLPPALLPYLEQFRRIVFWLGDDLRSWEAAKLFARKLNPKRCFLVRPGDQQPRPLEALNGGFNLSRILRTALPAWHKSIVSFRQLREEVLGELSNVEQAAGLRWSRFPDLNRILKGHRKGELTVFTGPTGSGKTTFISEYALDLCSQGVNTLWGSFEISNVRLARVMLTQFAEGRLEDQLDKYDHWADRFEDLPLYFMTFHGQQSIRTVIDTMQHAVYVYDICHVIIDNLQFMMGHEQLSTDRIAAQDYIIGVFRKFATDNNCHVTLVIHPRKEDDDKELQTASIFGSAKASQEADNVLILQDRKLVTGPGKRYLQVSKNRFDGDVGVFPLEFNKNSLTFSIPPKNKARLKKIKDDTGPVAKKPSSGKKGATTQNSEICSGQAPTPDQPDTSKRSK
B2: Twinkle C-terminal domain with linker (CTD, amino acids 360-684) (domain or fragment, human, UniProt Q96RR1 360-684, looked up)
chain: LPAWHKSIVSFRQLREEVLGELSNVEQAAGLRWSRFPDLNRILKGHRKGELTVFTGPTGSGKTTFISEYALDLCSQGVNTLWGSFEISNVRLARVMLTQFAEGRLEDQLDKYDHWADRFEDLPLYFMTFHGQQSIRTVIDTMQHAVYVYDICHVIIDNLQFMMGHEQLSTDRIAAQDYIIGVFRKFATDNNCHVTLVIHPRKEDDDKELQTASIFGSAKASQEADNVLILQDRKLVTGPGKRYLQVSKNRFDGDVGVFPLEFNKNSLTFSIPPKNKARLKKIKDDTGPVAKKPSSGKKGATTQNSEICSGQAPTPDQPDTSKRSK

Legend:
[1] = target: the molecule itself; test: SEC
[2] = target: the molecule itself; test: SEC; remark: listed apart in the source

Protein | stoichiometry N [1] | stoichiometry N [2] [subunit]
B1 | ~7 | –
B2 | – | ~12
